This note sets out measurements from the DeepSol protein solubility set.

This data set can be described thus: soluble on expression in E. coli; label from the status in PepcDB or PDB records.
Take “MSLPLIIPENIPAYELLKEHAFIMGLRRAKHQDIRPQEILIVNLMPKKIETENQILSLLANSPLQVNITLLATTSYVGKNTPFTHLEKFYKGLEEVKKHKFDGAIVTGAPVEQMDFEKVAYWEELLEIFDFLKQNVTSSMYICWGAMAALKYFYGVDKISLDKKIFGVYKHDKVSPDLLLTNLDEKVLMPHSRHSSMDEEQILALQKQGKLKILLRNKKIGSALLRDEKNIFILGHLEYFKETLHQEYVRDNFIQKAKNYYDKKGNIKYNWRSNANTIFANWLNYDVYQSTPFVLEGHHHHHH”: the “soluble on expression in E. coli” value is given as “soluble”.

Consider “MGSDKIHHHHHHMVETLAGLFDFEMDPQSGVALTRQLRDQLRRAIAAGSLASGRRLPSSRALALHLRVSRNTVCAAIEQLAMEGYLDVSRGRRPVVAPMPSAGLVAIGSDRPVSDGRSGMSQWAQRIDRSDWPFISEGRPTPFAPCVADARAFPHAIWGRCLRTATRYAVARTSTACNRPGLRRALLHHLVEYRGVNADAHQVFLMPTAQAAIALVARVLLDPGDLAWVESPGYGGARAAFEAAGATVQGIALDQSGMAFETSTDTPRLIFVTPAHQHPTGLLMPPARRQALLRFAARVGARIIEDDYDSEFHYEGRPVAALQGADDADSVFYVGTFSKSLHADIRVGYVVVPGHFVDVFAKAQRHTGQIVGATLQDALAEFIDDGHYAAHIRKTTRLYHARRDYLCDALKAVGSELTVSPPDGGMQVVARLGPLRDDREICRRLAEAGVTARPLSPHYCAQTGAQGLFLGFAAWNECEIDAGVRILARVIREPEPSK”, for which the “soluble on expression in E. coli” value is given as “not soluble”.

With “MKDILGKTFECSCGKTHEVPDIEILETSIREAPDVFSDAFFIADLNTASLVDLPGKRSFVFNERRPLATMENV”, the “soluble on expression in E. coli” value is given as “not soluble”.

As for “MRTRSGSAEFSGPLRSVAILAQEKLGDCVLLTPLVRNLRQAFPDLEIHLITFSRASANFFMNDPQVTAVHLVKKQPRRYFREVLSRKFDLLFNTKDHPSTWFLLQSALIRARFKVGHNNPFHEGLYDRLLDTEFHAHMAVKNCALLPLLGVTADTEACRPSLEHHHHHH”, the “soluble on expression in E. coli” value is “soluble”.

Consider “MGSDKIHHHHHHMKVVKFGGSSLASGAQLDKVFHIVTSDPARKAVVVSAPGKHYAEDTKVTDLLIACAEQYLATGSAPELAEAVVERYALIANELQLGQSIIEKIRDDLFTLLEGDKSNPEQYLDAVKASGEDNNAKLIAAYFRYKGVKAEYVNPKDAGLFVTNEPGNAQVLPESYQNLYRLRERDGLIIFPGFFGFSKDGDVITFSRSGSDITGSILANGLQADLYENFTDVDAVYSVNPSFVENPKEISELTYREMRELSYAGFSVFHDEALIPAFRAGIPVQIKNTNNPSAEGTRVVSKRDNTNGPVVGIASDTGFCSIYISKYLMNREIGFGRRALQILEEHGLTYEHVPSGIDDMTIILRQGQMDAATERSVIKRIEEDLHADEVIVEHHLALIMVVGEAMRHNVGTTARAAKALSEAQVNIEMINQGSSEVSMMFGVKEAEERKAVQALYQEFFAGVLIS”, for which the “soluble on expression in E. coli” value is given as “not soluble”.

With “MGSDKIHHHHHHMPHSLHPLFQAIATAPTEQTLRLTVMDNISEYFGVQRWGIYLLDTNNNLASVEAKGVSDTFIEQYQRFGKAVDPVLKYVLENHAPAHEELVLPEGTWKQSELYQRCCSTHDHEHIMTGPLVGQGQLIGTINFARIGHIPAFNHLELASLGAVCTHFSARLAELRKPHSVSGQISNRLTSREIQIANLVAKGLTNAEIGAELWITHNSVKQALKRIFRKLEVSARTEMVAKLRDII”, the “soluble on expression in E. coli” value was “not soluble”.

As for “MKNKAFGQIMDDAENPGFFKILRSADLSSEIMRGIPLNFIKSISEEELSAKMLLKVSWGSSWPIKICRNPSFYFMEKKGWDQFLSDNGLGNDEFLTFTHQGNMCFTVDIYQIDGKELLTPRRSATIASSSGRNKREQRNNIYKDVKEEEDIESWSESSYPGHKTAESTGRRQRLSLSNKKAKETEKSKKKKMKVESISYDSQDDSLSLVPEFTLTIKKSYLIFLGIPKMFEELHMPTEATMFKIHDPEGKRSWDVMYKFSNNQTRFCAGWIRLAKELGLEIGDVCTFTLIKPTEMLVRVSK”, the “soluble on expression in E. coli” value is reported as “soluble”.

On to “MSHSYSVPKKFPTTVVGSYPKIGPASEAIKKRRAGEISEEEFHRIARESIRMVVEDYIWAGVDIISDGEQTREDMVVYFAERLEGYREGDWVRVFDNVYFRKPIVAGRVRWVRPMIIEDWEYARSISAGRPVKFIITGPYTMLEWSFDLHYGDRRELIFDLARAIRREIDEALARGAEYIQVDEPALSTRPFKEEAELLKEALDIIFKGVGAKRIVHICYGELERILPYILDYPVDQFDLEMKNSNFRLLPYLKEYGYDKEIGYGVIDVHSFQVESVGEVKEAIDRLMKMDIVGPEKVYVDPDCGLKRLPRDVARAKLKNMVEAARLAREEWMAGDPLEHHHHHH”, for which the “soluble on expression in E. coli” value is given as “not soluble”.

Turning to “MGSDKIHHHHHHVGTGDGNAIWPIRSVHLIGAIYPHILEELMLNTVILYSTVDGQTLAICQKIKQILVEQGEQVSVVNLAEVEADDLASVDKVVIGASIRYGKHRPELFKFVEQHKVLLDTKHNSFFSVNVVARKPEKNTPETNPYMQKFSNLSAWKPQLLGVFAGKIDYPRYRFFDKFMIRFIMWMTKGPTDTQGTFEFTDWGKVDDYAKQIAAQK”, the “soluble on expression in E. coli” value is reported as “not soluble”.

For the sequence “MSLATAPPFERIETTGLQTLTPRELDELIESVAAVDNPTPLVDDESFLRRVTLDAIGRVPTEQEWKTFMEDPASNKRAKLIDRLLASEEYGANWANYWSDVFSYRTPSPELTFLSYDTPKHWLAEQLNNGVGWDQVSYQMLTGVGKVADNPAAFYVGYHQADVSRLAGESTRIFLGAQIQCAECHDHPFVDIPQERFHQMAAFFVRTKAELPWNDEGHHHHHH”, the “soluble on expression in E. coli” value is on record as “soluble”.

As to “MSLDDRRLIAEVEARRADLVALTQDLVRIPTLNPPGRNYRALCDMLAARLAPQFEVELVRAHGAPGDSETYPRWNLIARRQGARDGDCVHFNSHHDVVEVGHGWTRDPFGAEVEGDRLYGRGACDMKGGLAASVIAAEAFLAVCPDFAGSIEISATADEESGGFGGVAYLARQGRFAHVQHVLIPEPLHKDRICLGHRGVWWAEVETQGRIAHGSMPFLGDSAIRHMGALLAEIEERLYPLLATRTTAMPVTPEGARQSTLNINSIHGGEPEPEPGYTGLPAPCVADRCRIVIDRRFLIEEDLDEVKAELRALAERLAEARPGFAFEIRDLFEVRPTLTDRDAPVVRSTAAAIERVLARQAEYVVSPGTYDQKHIDRIGKLKNCIAYGPGLLHLAHQPDEWVGIADMVDSAKVMALVLADLLAPEEGHHHHHH”, the “soluble on expression in E. coli” value is recorded as “soluble”.

As to “MYILLCCAAGMSTSMVVRKMQEEAKKQGKDYKIKAVDSELVKLEIKNADVVLIGPQVKYLFPAVQFLAKSYDIPVAIIEQRDYGMCDGLKVLKQAEQLVLA”, the “soluble on expression in E. coli” value is on record as “not soluble”.

Turning to “TVAVSQIVEHPALDATRQGLLDGLKAKGYEEGKNLEFDYKTAQGNPAIAVQIARQYVGESPDVLVGIATPSAQALVSATRTIPVVFTAVTDPVGAKLVKSMKQPGKNVTGLSDLSPVAQHVELIQEILPQVKSIGVVFNPGEANAVTLVNLLKESAEAKGIKVVEATALKSADVQSATQAIAAKSDILYAPTDNTVASAIEGMIVAANQAKKPVFGGATSYVEKGAIAGLGFDYYQVGVQTADYVAAILDGQEPGKLDVKVATGSDLVINESAASKLGIQLPSSVVQRATSMQ”, the “soluble on expression in E. coli” value was “not soluble”.

As for “MFDLAERLSSNKSNESKLSHKLKTMLFYQTEECRSLVNESFRFDGKDEPKCVKNRDEEFRQIDLLNPPEVVIIELNASQDVVQDAQRLAHLLPSQVSVVIVGSEDAISTIRLLKEMGFYYLFWPVSKQECSDFMKHVLDNHEQHRGLMANRKSKRVAMVGVKGGVGTSLISSEVSRMLSFDKGVSTLLVDHNYHGGNLDIFMGLKQHQKRIVQKGTLISNIDGTYALGLIRKITPMLSMLAIDSDELNAQELKEYTLAVQEQALKNSSVMIEDHAHLIRNEDDIIKLLQQVDVLVLVFDATVSSLRDYNRLNQLVKKNNLDNQTRVISVLNSSRPSNSGSVSAEEIEKYSGQRATISIPYDDKAPQYVLEGLQIVKTKSAMALPLMNLVALILGEEPKQESRSFLSFFKKKG”, the “soluble on expression in E. coli” value was “not soluble”.

On to “MKRMLVGCLAAALLFSSGWATAEAKGKQQSKPKWADKNKDGIPDDWELKYKLGLGKNVANQDKDRDGLTNRVEYNLRLNPTKTDTDKDKILDGDEDTDRDGLTNSAEVALGTKPEDADSDNDHVKDGAEKKGKAQLANVVQKLELQMKTAANQTIKIDYHWSDRHSHLHIKDQTGEVTTNDVQSLINDLQASPSLSNDEVIAKIQTLFSLDTPFRLELEWKYGSGRARKLSVKQDEDKGENAGQPGDDQDDDDQGHDQDGHDQNHDQDDDDYDGGNVGGDDGNSSE”, for which the “soluble on expression in E. coli” value is reported as “not soluble”.

Regarding “MGSDKIHHHHHHMPQIGYQWLSSKCGVVPVHPFAVQSEIGRARSTSTDGDIRREIYPEPYRPTASLTDNLTFAFRHEGIHLEFLARLYALPSVRKELEAWIAREPTGAYARRACFFYEWLMPAPLDAPGVSKGNYVDALNPEEFVVGASINNTRWRVRDNLPGNRDFCPVIRRVEAVQRAETYDLAAPLAELEADYGIDLILRSAVWLTVKESRASFLIEHEQDNEDRIRRFAAVMESECGQHANPFDAGTLNVLQRGILGQSALRYGIRRSPVYVGHVARYQPVVDYIAPPWQHIEVMLAGLTRFLERTAGRAPLVRAAAASFGFVYAHPMADGNGRISRFLINDILRRDGAVPAPIILPVSATITHSTRDRAAYDKVLERFSRPLMKHYADQYTFGKTEIAEDGVEYNLHFHAYEDALPAWRYPDLTAHVGYLADVIDATLAHEMRTEARFLQANDKARRAIKDFLEAPDNDLDGIIRSVRQNGNSISNNLRKRYPLLDERPELGAQIVEAVAEAFADDKSH”, the “soluble on expression in E. coli” value is reported as “not soluble”.

Take “MSLSQRTYGYGRVSTDEQTTSQQLTAIREAGHKVSDNRFIVDEGVSGGVCAMERPAFRNLVENKLEKGDTLVIAKLDRLGRDNIDVQQVVQMLTDKGIKLFILDLPVADLSSPEGKLMLQMFATFAEFEKNRISERIRDKLKQLKQEGKALGRPTKNVYDDVQELKAQGISQRTIADKLNVSLSTVRRNWVDTKRSLEVVTESGEGHHHHHH”: the “soluble on expression in E. coli” value was “soluble”.

“MATKSVLMLGSGFVTRPTLDVLTDSGIKVTVACRTLESAKKLSAGVQHSTPISLDVNDDAALDAEVAKHDLVISLIPYTFHATVIKSAIRQKKHVVTTSYVSPAMMELDQAAKDAGITVMNEIGLDPGIDHLYAIKTIEEVHAAGGKIKTFLSYCGGLPAPESSDNPLGYKFSWSSRGVLLALRNAASFYKDGKVTNVAGPELMATAKPYFIYPGFAFVAYPNRDSTPYKERYQIPEADNIVRGTLRYQGFPQFIKVLVDIGFLSDEEQPFLKEAIPWKEATQKIVKASSASEQDIVSTIVSNATFESTEEQKRIVAGLKWLGIFSDKKITPRGNALDTLCATLEEKMQFEEGERDLVMLQHKFEIENKDGSRETRTSSLCEYGAPIGSGGYSAMAKLVGVPCAVAVKFVLDGTISDRGVLAPMNSKINDPLMKELKEKYGIECKEKVVA”: the “soluble on expression in E. coli” value is “soluble”.

For “MLKKIREEFGCIFARDPAAQSFFEILTVYPGVHAVLIHRFSHWLWNHGLHWPARVLSYLARWATGIEIHPGATLGRRLFIDHGMGVVIGETAVIGDDCTLYHGVTLGGTSWQKGKRHPTLGNGVVVGAGAKVLGPITVGDGARIGSNSVVLRTVPAGATVVGIPGHIINPDRRAQEAQRLAIASRLGFDAYGMTPDMPDPVAHAINHMLDHIQALDQQVAKLKEVLRERGIDLEEAPLPDLDDCQLDPGEPQVTVNSSRTGLEHHHHHH”, the “soluble on expression in E. coli” value is listed as “soluble”.

On to “AVTIPPARHAEPQRWIARLPGFKISENKAQALWELAGKNIEGLQTDKALPTDWQAWRSEPQNAALLENLKTFFAQMPSEDEAAQGSDGIN”, for which the “soluble on expression in E. coli” value is given as “not soluble”.
